First the molecules themselves.
B1: TPR 5TU (parent)
chain: GGAUCUUCUCGAUCUAACAAAAAAGACAAAUCUGCCACAAAGCUUGAGAGCAUCUUCGGAUGCAGAGGCGGCAGCCUUCGGUGGCGCGAUAGCGCCAACGUUCUCAACUAUGACACGCAAAACGCGUGCUCCGUUGAAUGGAGUUUAUCAUG

This sample holds only a part of the variants without activity.

This data set covers variants of B1. Briefly: polymerase ribozyme fitness, log enrichment relative to wild type (log ratio); higher = more active; in vitro selection for triplet polymerase activity. In outline:
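Mutant libraries of both subunits of a heterodimeric triplet polymerase ribozyme were PCR-built, transcribed, and selected once in triplicate, with frozen incubation at −7 °C and capture of gel-excised extended constructs on streptavidin beads before RT-PCR. Illumina sequencing of input and output libraries was filtered to genotypes with ≥10 input reads and ≥1 read per output. Fitness is the logarithm of genotype enrichment over wild-type enrichment, using inverse-variance-weighted replicate averages. The logarithm is base 2.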
Regarding U55A C96G G143A, the “polymerase ribozyme fitness (log ratio)” value was -2.1.

Consider U56G G141U, for which the “polymerase ribozyme fitness (log ratio)” value was 0.498.

As to U56C G83A C87G C123U G141A, the “polymerase ribozyme fitness (log ratio)” value was at most -4.2.

U56A C149A: the “polymerase ribozyme fitness (log ratio)” value was -3.67.

As to U55A G59A C75U G92U C99G C129G U139G, the “polymerase ribozyme fitness (log ratio)” value was at most -4.2.

On to C54U U104G, for which the “polymerase ribozyme fitness (log ratio)” value was -1.21.

In the case of C54U U77G A121C, the “polymerase ribozyme fitness (log ratio)” value was at most -4.2.

For U56G C69U A73U U134C G141U U146A, the “polymerase ribozyme fitness (log ratio)” value is -2.72.

With U55C A119G U145A, the “polymerase ribozyme fitness (log ratio)” value was -0.113.

Consider C57A C72G U77A C87A U127A G136A, for which the “polymerase ribozyme fitness (log ratio)” value is at most -4.2.

As to U55A C76A, the “polymerase ribozyme fitness (log ratio)” value was -0.81.

On to U56C C85G C149A, for which the “polymerase ribozyme fitness (log ratio)” value was at most -4.2.

As for U56C U78G C85U A89G, the “polymerase ribozyme fitness (log ratio)” value was at most -4.2.

Turning to U55A G70C G92U A119U, the “polymerase ribozyme fitness (log ratio)” value was -3.25.

As to C57A U101G, the “polymerase ribozyme fitness (log ratio)” value turned out to be 0.71.

As for C57G G81U C85G C96U U134A, the “polymerase ribozyme fitness (log ratio)” value was -4.03.

Take U55A C57U G81A G84A: the “polymerase ribozyme fitness (log ratio)” value was -0.555.

C57A C85A A107G: the “polymerase ribozyme fitness (log ratio)” value is at most -4.2.

As to U55A C93A, the “polymerase ribozyme fitness (log ratio)” value was -2.96.

Take U56G G136A: the “polymerase ribozyme fitness (log ratio)” value turned out to be 0.0437.

Regarding U55A G92A, the “polymerase ribozyme fitness (log ratio)” value was -2.69.

With C57G C76U G88A G92U, the “polymerase ribozyme fitness (log ratio)” value is -3.96.

As to C57G C125A, the “polymerase ribozyme fitness (log ratio)” value was -0.508.

With U55G G59C G86A C103U U146C, the “polymerase ribozyme fitness (log ratio)” value was -2.47.

As for C54U U56A G58A C85U C95A, the “polymerase ribozyme fitness (log ratio)” value is -1.2.

With C57A A121U, the “polymerase ribozyme fitness (log ratio)” value is -0.0826.

Regarding U56A C105U A121C G133U G140U, the “polymerase ribozyme fitness (log ratio)” value is at most -4.2.

With U56A G81A, the “polymerase ribozyme fitness (log ratio)” value was -0.577.

Turning to U55A C76G G100C U109A A120G, the “polymerase ribozyme fitness (log ratio)” value was at most -4.2.

As for U55A G59C C103U U104G, the “polymerase ribozyme fitness (log ratio)” value is -3.29.

Take U56A G62A A97G C103A: the “polymerase ribozyme fitness (log ratio)” value was -3.45.

U55A A64G U135A: the “polymerase ribozyme fitness (log ratio)” value was at most -4.2.

In the case of C57A G68C C85A U134A U146C, the “polymerase ribozyme fitness (log ratio)” value was at most -4.2.

Turning to U55A C96G, the “polymerase ribozyme fitness (log ratio)” value was -1.04.

With U55A C96A, the “polymerase ribozyme fitness (log ratio)” value was -1.21.

Consider U56A G83C A122G G152U, for which the “polymerase ribozyme fitness (log ratio)” value is -3.94.

Regarding U55C G59A C96A, the “polymerase ribozyme fitness (log ratio)” value is -3.02.

For the variant U55A G62A C96U, the “polymerase ribozyme fitness (log ratio)” value was -2.14.

As for U55A C96U U127C U134C, the “polymerase ribozyme fitness (log ratio)” value was -3.3.

In the case of C57A G65A, the “polymerase ribozyme fitness (log ratio)” value was -0.56.

As for C57A U78C C95G C99G, the “polymerase ribozyme fitness (log ratio)” value was -3.07.

Take C57A G141A G152U: the “polymerase ribozyme fitness (log ratio)” value was -3.49.

Consider U56A U90G, for which the “polymerase ribozyme fitness (log ratio)” value is at most -4.2.

C57A C96A: the “polymerase ribozyme fitness (log ratio)” value was -0.383.

With U55A G100C G126U G128C, the “polymerase ribozyme fitness (log ratio)” value was at most -4.2.

For the variant U55A G83A, the “polymerase ribozyme fitness (log ratio)” value was -0.501.

For U55A U56A U78C G83U A89U, the “polymerase ribozyme fitness (log ratio)” value is -0.955.

With U56A G81U C93U G141C, the “polymerase ribozyme fitness (log ratio)” value was -1.52.

Turning to U55A C57G A89U G136C, the “polymerase ribozyme fitness (log ratio)” value is -3.69.

As for C57A A98G C123G U145G, the “polymerase ribozyme fitness (log ratio)” value was 0.398.

On to U56A G58U C63A A115U C118U, for which the “polymerase ribozyme fitness (log ratio)” value was -1.35.

Take U55A A137G G141A: the “polymerase ribozyme fitness (log ratio)” value was -1.96.

In the case of U56A C96U A119U, the “polymerase ribozyme fitness (log ratio)” value is -0.585.

Take C57G G59A G80U G92U C99A C131U U135A: the “polymerase ribozyme fitness (log ratio)” value is -3.22.

As for U56G C85G A115U, the “polymerase ribozyme fitness (log ratio)” value is -3.43.

For the variant C57A C85U G124U U130A, the “polymerase ribozyme fitness (log ratio)” value was -2.9.

For U55A C69G U146A, the “polymerase ribozyme fitness (log ratio)” value was -3.62.

Turning to C57A G140A, the “polymerase ribozyme fitness (log ratio)” value is at most -4.2.

As for U55A G81A, the “polymerase ribozyme fitness (log ratio)” value is -1.9.

U55A A60G C99G G141C: the “polymerase ribozyme fitness (log ratio)” value is -2.6.

As for C57A C93A, the “polymerase ribozyme fitness (log ratio)” value is -2.04.

Consider U56C G58U C114U A119U, for which the “polymerase ribozyme fitness (log ratio)” value was -1.67.

Turning to U56C C93U, the “polymerase ribozyme fitness (log ratio)” value is -1.53.

Take U55G C69U: the “polymerase ribozyme fitness (log ratio)” value was -2.89.

For the variant C57A A73U G84A U135A, the “polymerase ribozyme fitness (log ratio)” value was -2.22.

As for C57A A89G A91G U145C U151G, the “polymerase ribozyme fitness (log ratio)” value is at most -4.2.

Turning to U55A C76A G84U C116U A137U, the “polymerase ribozyme fitness (log ratio)” value is at most -4.2.

Turning to C54U U82G, the “polymerase ribozyme fitness (log ratio)” value was determined as 0.0533.

Turning to C57G G59A C118U C125A G136C, the “polymerase ribozyme fitness (log ratio)” value is -3.19.

For U55A U56A G71A U82G U102G, the “polymerase ribozyme fitness (log ratio)” value is at most -4.2.

As to U55C G74C G124A, the “polymerase ribozyme fitness (log ratio)” value is -4.12.

Regarding U56A G141U, the “polymerase ribozyme fitness (log ratio)” value stood at 0.137.

With C54U U144A, the “polymerase ribozyme fitness (log ratio)” value is -0.258.

Regarding U55A A89C A119C, the “polymerase ribozyme fitness (log ratio)” value was -0.892.

For C57G G83A G124U G141A, the “polymerase ribozyme fitness (log ratio)” value is -1.22.

As to U56G A64U G81A G88A C114A A115U G141U, the “polymerase ribozyme fitness (log ratio)” value was at most -4.2.

On to C57A U61G U78G G88A U148A, for which the “polymerase ribozyme fitness (log ratio)” value is at most -4.2.

Regarding U55G C87A C93A C99U U134A, the “polymerase ribozyme fitness (log ratio)” value is at most -4.2.

With U56A G74U C85G G133U, the “polymerase ribozyme fitness (log ratio)” value was at most -4.2.

As for C57G C87U A89C C116A C132A, the “polymerase ribozyme fitness (log ratio)” value is -4.13.

As for U55A G84A G143A, the “polymerase ribozyme fitness (log ratio)” value is -0.776.

For the variant U56A G70A G81C, the “polymerase ribozyme fitness (log ratio)” value is at most -4.2.

Regarding U55G G94A, the “polymerase ribozyme fitness (log ratio)” value is -1.43.

For the origin of these results see the RNAGym collection of RNA variant scans (doi:10.1073/pnas.2313332121).
